We go through 19 sequences from the Immune Epitope Database (IEDB).

What is called IC50 is the concentration that gives 50% inhibition.

One assay concerns the target HLA-A*02:01. In words: IEDB peptide-MHC binding, purified MHC/competitive/radioactivity; ≥ and ≤ were set here for values at or beyond the usual limits of such assays. The following applies: source organism: Bordetella pertussis.
On to GVAPTAQQL, for which the 50% inhibitory concentration (IC50) amounted to 69.4 µM.
In the case of VLVKTNMVV, the IC50 worked out at 11.4 µM.
The same measure, in the same setting: to YMIYMSGLA belongs 0.407 µM.

For the next assay, the target named is HLA-B*44:03. The description is as above. The following applies: source organism: Bordetella pertussis.
With AAVALLNKL, the IC50 worked out at 0.672 µM.
Consider AQITSYVGF, for which the IC50 was 2.12 µM.

In another assay the target is HLA-B*53:01. Described as above. To be noted: source organism: Bordetella pertussis.
Regarding ETFCITTIY, the IC50 was found to be 31.1 µM.
As for MAAESTFES, the IC50 is 24.1 µM.
For the sequence MATKGEMQI, the IC50 was 58 µM.

The next assay deals with HLA-B*35:01. Described as above. To be noted: source organism: Bordetella pertussis.
With ETFCITTIY, the IC50 was 15.8 µM.
Consider GKDLKRPGS, for which the IC50 was 69.9 µM.
The same measure, in the same setting: the result for QVGSSNSAF reads 69.9 µM.
Consider VHVSKEEQY, for which the IC50 was 69.9 µM.

The next assay has as its target HLA-B*07:02. The description is as above. To be noted: source organism: Bordetella pertussis.
On to FVRSGQPVI, for which the IC50 is 17.6 µM.
Take GPPSRPTTP: the IC50 was 69.6 µM.
For GPSAVAAPA, the IC50 was 0.624 µM.
For the sequence PPKPAPVAK, the IC50 was at least 77.5 µM.

The next assay deals with HLA-B*57:01. The assay is described as above. The following applies: source organism: Bordetella pertussis.
As to AVLVNPHIF, the IC50 stood at 33.3 µM.
Consider DDEVDVSGR, for which the IC50 is at least 70.4 µM.
On to ITVTSRGGF, for which the IC50 worked out at 0.773 µM.
As to TTLGLEQTF, the IC50 came out at 4.77 µM.
